Results on three substances are retold here after paper PMC8017934.

Assay [1] has as its target human 40S ribosomal subunit with the ybbR tag on RACK1, biotinylated or Cy5-labelled (human) (UniProt P63244).
For assay [2], the target named is human 40S ribosomal subunit with the ybbR tag on uS19, Cy3-labelled (human (endogenous in HEK293T)) (UniProt P62841).

“And” between values parts separate entries of the source, which are not always exact repeats. Equal values may be shown once. A value given as a limit tells only on which side of the number the result lay.

For “Bat-Hp-CoV NSP1 with an N-terminal ybbR tag, Cy3-labelled (natural protein)”, in assay [1], the Kd was less than 0.001 µM, the fraction of IRES–40S complexes bound at least once by NSP1 (≥∼5 s) was 89% and the koff is less than 0.002 s⁻¹.

For “SARS-CoV-2 NSP1 with an N-terminal ybbR tag, fluorescently labelled (from UniProt P0DTD1 1-180) (natural protein)”, in assay [2], the fraction of recruited 40S subunits with which NSP1 coassociated is 57% and 60%.

In assay [1], “SARS-CoV-2 NSP1(KH164-165AA) with an N-terminal ybbR tag, Cy3-labelled (from UniProt P0DTD1 1-180) (natural protein)” returned a Kd of more than 0.35 µM, a fraction of IRES–40S complexes bound at least once by NSP1 (≥∼5 s) of 9% and a koff of 0.14 s⁻¹.
